Reference: US20150065381A1
Values joined by “and” are separate entries in the source; they are usually repeats but may differ in a detail not shown here. Identical values can stand only once.

What was measured:
[1] = target: HIV-1 envelope of gp160 clone B-Acute-010.c09 (HIV-1); test: capture ELISA, plate 2, mAb 0.3 ug/ml
[2] = target: HIV-1 envelope clone BF-002.c05 (multiclade gp160 clone panel) (HIV-1); test: capture ELISA, plate 2, mAb 0.3 ug/ml
[3] = target: HIV-1 envelope of gp160 clone AG-010.c11 (HIV-1); test: capture ELISA, plate 2, mAb 0.3 ug/ml
[4] = target: HIV-1 envelope of gp160 clone B-Acute-009-c08 (HIV-1); test: capture ELISA, plate 2, mAb 0.3 ug/ml
[5] = target: HIV-1 JRCSF envelope (HIV-1) (UniProt P20871); test: capture ELISA, plate 2, mAb 0.3 ug/ml
[6] = target: HIV-1 envelope clone G-011.c05 (multiclade gp160 clone panel) (HIV-1); test: capture ELISA, plate 2, mAb 0.3 ug/ml
[7] = target: HIV-1 envelope of gp160 clone B-Acute-008.c11 (HIV-1); test: capture ELISA, plate 2, mAb 0.3 ug/ml
[8] = target: HIV-1 envelope clone F1-002.c16 (multiclade gp160 clone panel) (HIV-1); test: capture ELISA, plate 2, mAb 0.3 ug/ml
[9] = target: HIV-1 envelope of gp160 clone B-Chronic-014.c02 (HIV-1); test: capture ELISA, plate 2, mAb 0.3 ug/ml
[10] = target: HIV-1 envelope clone G-011.c02 (multiclade gp160 clone panel) (HIV-1); test: capture ELISA, plate 2, mAb 0.3 ug/ml
[11] = target: HIV-1 envelope of gp160 clone AG-010.c14 (HIV-1); test: capture ELISA, plate 2, mAb 0.3 ug/ml
[12] = target: HIV-1 envelope clone F1-002.c11 (multiclade gp160 clone panel) (HIV-1); test: capture ELISA, plate 2, mAb 0.3 ug/ml
[13] = target: HIV-1 16055 envelope (HIV-1); test: capture ELISA, plate 2, mAb 0.3 ug/ml
[14] = target: HIV-1 JRFL envelope (HIV-1); test: capture ELISA, plate 2, mAb 0.3 ug/ml
[15] = target: HIV-1 envelope clone BF-002.c08 (multiclade gp160 clone panel) (HIV-1); test: capture ELISA, plate 2, mAb 0.3 ug/ml
[16] = target: HIV-1 envelope of gp160 clone B-Acute-010.c08 (HIV-1); test: capture ELISA, plate 2, mAb 0.3 ug/ml
[17] = target: HIV-1 envelope of gp160 clone B-Acute-010.c09 (HIV-1); test: capture ELISA, plate 1, mAb 0.8 ug/ml
[18] = target: HIV-1 envelope clone BF-002.c05 (multiclade gp160 clone panel) (HIV-1); test: capture ELISA, plate 1, mAb 0.8 ug/ml
[19] = target: HIV-1 envelope clone G-011.c05 (multiclade gp160 clone panel) (HIV-1); test: capture ELISA, plate 1, mAb 0.8 ug/ml
[20] = target: HIV-1 envelope of gp160 clone B-Acute-008.c11 (HIV-1); test: capture ELISA, plate 1, mAb 0.8 ug/ml
[21] = target: HIV-1 envelope clone F1-002.c16 (multiclade gp160 clone panel) (HIV-1); test: capture ELISA, plate 1, mAb 0.8 ug/ml
[22] = target: HIV-1 envelope of gp160 clone B-Chronic-014.c02 (HIV-1); test: capture ELISA, plate 1, mAb 0.8 ug/ml
[23] = target: HIV-1 envelope clone G-011.c02 (multiclade gp160 clone panel) (HIV-1); test: capture ELISA, plate 1, mAb 0.8 ug/ml
[24] = target: HIV-1 16055 envelope (HIV-1); test: capture ELISA, plate 1, mAb 0.8 ug/ml
[25] = target: HIV-1 JRFL envelope (HIV-1); test: capture ELISA, plate 1, mAb 0.8 ug/ml
[26] = target: HIV-1 envelope of gp160 clone B-Acute-010.c09 (HIV-1); test: capture ELISA, plate 2, mAb 2.5 ug/ml
[27] = target: HIV-1 envelope of gp160 clone B-Acute-009-c08 (HIV-1); test: capture ELISA, plate 2, mAb 2.5 ug/ml
[28] = target: HIV-1 JRCSF envelope (HIV-1) (UniProt P20871); test: capture ELISA, plate 2, mAb 2.5 ug/ml
[29] = target: HIV-1 envelope clone G-011.c05 (multiclade gp160 clone panel) (HIV-1); test: capture ELISA, plate 2, mAb 2.5 ug/ml
[30] = target: HIV-1 envelope clone F1-002.c16 (multiclade gp160 clone panel) (HIV-1); test: capture ELISA, plate 2, mAb 2.5 ug/ml
[31] = target: HIV-1 envelope of gp160 clone B-Chronic-014.c02 (HIV-1); test: capture ELISA, plate 2, mAb 2.5 ug/ml
[32] = target: HIV-1 envelope clone G-011.c02 (multiclade gp160 clone panel) (HIV-1); test: capture ELISA, plate 2, mAb 2.5 ug/ml
[33] = target: HIV-1 envelope of gp160 clone AG-010.c14 (HIV-1); test: capture ELISA, plate 2, mAb 2.5 ug/ml
[34] = target: HIV-1 envelope clone F1-002.c11 (multiclade gp160 clone panel) (HIV-1); test: capture ELISA, plate 2, mAb 2.5 ug/ml
[35] = target: HIV-1 JRFL envelope (HIV-1); test: capture ELISA, plate 2, mAb 2.5 ug/ml
[36] = target: HIV-1 envelope clone BF-002.c08 (multiclade gp160 clone panel) (HIV-1); test: capture ELISA, plate 2, mAb 2.5 ug/ml
[37] = target: HIV-1 envelope of gp160 clone B-Acute-010.c08 (HIV-1); test: capture ELISA, plate 2, mAb 2.5 ug/ml

Row | Substance | ELISA OD [1] | ELISA OD [3] | ELISA OD [4] | ELISA OD [5] | ELISA OD [6] | ELISA OD [7] | ELISA OD [9] | ELISA OD [10] | ELISA OD [11] | ELISA OD [16] | ELISA OD [17] | ELISA OD [19] | ELISA OD [20] | ELISA OD [22] | ELISA OD [23] | ELISA OD [26] | ELISA OD [27] | ELISA OD [28] | ELISA OD [29] | ELISA OD [31] | further results
1 | PGT145 (antibody) | 0.082 OD | 0.075 OD | 0.084 OD | 0.067 OD and 0.115 OD | 0.074 OD | 0.092 OD | 0.058 OD | 0.104 OD | 0.061 OD | 0.088 OD | 0.06 OD | 0.08 OD | 0.078 OD | 0.083 OD | 0.062 OD | 0.074 OD | 0.11 OD | 0.173 OD and 0.086 OD | 0.119 OD | 0.066 OD | ELISA OD [2]: 0.114 OD; ELISA OD [8]: 0.254 OD; ELISA OD [12]: 0.059 OD; ELISA OD [13]: 0.066 OD and 0.1 OD; ELISA OD [14]: 0.068 OD and 0.08 OD; ELISA OD [15]: 0.088 OD; ELISA OD [18]: 0.169 OD; ELISA OD [21]: 0.269 OD; ELISA OD [24]: 0.065 OD and 0.059 OD; ELISA OD [25]: 0.057 OD and 0.051 OD; ELISA OD [30]: 0.456 OD; ELISA OD [32]: 0.07 OD; ELISA OD [33]: 0.076 OD; ELISA OD [34]: 0.072 OD; ELISA OD [35]: 0.075 OD and 0.058 OD; ELISA OD [36]: 0.073 OD; ELISA OD [37]: 0.316 OD
2 | PG9 (antibody) | 0.074 OD | 0.257 OD | 0.057 OD | 0.113 OD and 0.131 OD | 0.076 OD | 0.097 OD | 0.479 OD | 0.052 OD | 0.274 OD | 0.079 OD | 0.08 OD | 0.172 OD | 0.168 OD | 1.22 OD | 0.064 OD | 0.106 OD | 0.07 OD | 0.177 OD and 0.186 OD | 0.161 OD | 0.986 OD | ELISA OD [13]: 0.118 OD and 0.146 OD; ELISA OD [14]: 0.06 OD and 0.056 OD; ELISA OD [24]: 0.313 OD and 0.242 OD; ELISA OD [25]: 0.064 OD and 0.096 OD; ELISA OD [32]: 0.052 OD; ELISA OD [33]: 0.834 OD; ELISA OD [35]: 0.058 OD and 0.051 OD; ELISA OD [37]: 0.278 OD
3 | PGV04 (antibody) | 0.424 OD | 0.103 OD | 0.075 OD | 0.525 OD and 0.588 OD | 0.123 OD | 0.129 OD | 1.52 OD | 0.189 OD | 0.096 OD | 0.303 OD | 0.902 OD | 0.136 OD | 0.053 OD | 2.9 OD | 0.282 OD | 2.1 OD | 0.155 OD | 1.87 OD and 2.17 OD | 0.288 OD | 4 OD | ELISA OD [2]: 1 OD; ELISA OD [8]: 0.142 OD; ELISA OD [12]: 0.064 OD; ELISA OD [15]: 0.758 OD; ELISA OD [18]: 1.91 OD; ELISA OD [21]: 0.118 OD; ELISA OD [30]: 0.303 OD; ELISA OD [32]: 0.712 OD; ELISA OD [33]: 0.283 OD; ELISA OD [34]: 0.156 OD; ELISA OD [36]: 2.79 OD; ELISA OD [37]: 1.57 OD
4 | PG16 (antibody) | 0.071 OD | 0.167 OD | 0.077 OD | 0.133 OD and 0.167 OD | 0.095 OD | 0.141 OD | 0.222 OD | 0.09 OD | 0.337 OD | 0.11 OD | 0.073 OD | 0.099 OD | 0.164 OD | 0.365 OD | 0.057 OD | 0.155 OD | 0.07 OD | 0.172 OD and 0.21 OD | 0.126 OD | 0.374 OD | ELISA OD [2]: 0.361 OD; ELISA OD [8]: 0.224 OD; ELISA OD [12]: 0.098 OD; ELISA OD [15]: 0.097 OD; ELISA OD [18]: 0.518 OD; ELISA OD [21]: 0.341 OD; ELISA OD [30]: 0.349 OD; ELISA OD [32]: 0.07 OD; ELISA OD [33]: 0.686 OD; ELISA OD [34]: 0.121 OD; ELISA OD [36]: 0.108 OD; ELISA OD [37]: 0.171 OD
